Laboratory results published in the nanobody polyreactivity screen of Harvey et al. (2022).

Assay: yeast display, Sf9 membrane polyspecificity reagent, FACS + sequencing; frameworks hold sequencing errors
Method in brief: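 Sorting gates, low and high (top ~1%), were placed on anti-HA fluorescence to track expression and on streptavidin fluorescence to track reagent binding. A clone's polyreactivity label is taken from the gate it came out of. The reagent was 10% biotinylated, detergent-solubilized Sf9 membrane, applied for 1 hour at 4 °C to galactose-induced yeast display cells.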

Sequence | polyreactivity (PSR sort gate)
QVQLVESGGGLVQAGGSLRLSCAASGTIFFPNAMGWYREAPGKERELVAAISWSGDSTYADSVKGRFTISRDNAKNTVYLQMNSLKPQDTAVYYCAAVYLWWSYEFDYWGQGTQVTVSS | low polyreactivity
QVQLVESGGGLVQAGGSLRLSCAASGSIFSGYAMGWYRQAPGKERELVAAISRRGTSTYYADSVKGRFTISRDNAKNTVYLQMNSLKPEDTAVYYCAATYGGRQSYGGFDYWGQGTQVTVSS | high polyreactivity
QVQLVESGGGLVQAGGSLRLICAASGSIFYYNVMGWYRQAPGKEREWVAAIDIDGSTYYADSVNGRFTIARDNAKNTVYLQMNSLKPADTAVYYCNAQAPYWFSFYSDHKYDYWGLGTQVTVSS | low polyreactivity
QVQLVESGGGLVQAGGSLRLSCAASGSTFRRNAMGWYRQAPGKERELVATISTRGGSTYYADSVKGRLTLSRDNAKNTVYLQMNSLKPEDTAVYYCAADRRSGYSRSKYGRGDYWGQGTQVTVSS | high polyreactivity
QVQLVESGGGLVQAGGSLRLSCAASGRIFPFYVMGWYRQAPGKERELVATINWSGGSTYYADSVKGRFTISRDNAKNTVYLQMNSLKPEETAVYYCNAAPSDDYDYWGQGTQVTVSS | low polyreactivity
QVQLVESGGGLVQAGGSLRLSCAASGRIYIIYAMGWYRQAPRKEREMVAAITRSGGRTFYADSVKGRFTISRDNAKNTVYLQMNSLKPEDTAVYYCAAAFGRVTKYGYRNQYGYWGQGTQVTVSS | high polyreactivity
QVQLVESGGGLVQAGGSLRLSCAASGLTFTTYTMGWYRQAPGKERELVAAISSRGGSTYYADSVKGRFTISRDNAKNTVYLQMNSLKPEDTAVYYFNAPRPHRMDWGQGTQVTVSS | high polyreactivity
QVQLVESGGGLVQAGGSLRLSCAASGRTFYSNAMGWYRQAPGKERELVAAIRRSRGRTYYADSVKGRFTISRDIAKNTVYLQMNSLKPEDTAVYYCATARYRAEMGYWGQGTQVTVSS | high polyreactivity
QVQLQESGGGLVQAGGSLRLSCAASGYISQSSVMGWYRQAPGKEREFVASISYGATTYYADSVKGRFTISRDNAKNTVYLQTNSPKPEDTAVYYCAVLVKRGFSHRYWGQGTQVTVSS | high polyreactivity
QVQLVESGGGLVQAGGSLRLSCAASGITFTQYAMGWYRQAPGKELELVAAITSSGGSTYYADSVKERFTISRDNAKNTVYLQMNSLKPEDTAVYYFIAVRRRQSDYWGQGTQVTVSS | high polyreactivity
QVQLVESGGGLVQAGGSLRLSCAASGRTFRQYAMGWYRQAPGKERELVADISSGGSTYYADSVKGRFTISRDNAKNTVYLKLNRLKPEDTAVYYCNKVSSGRYGSRSFDYWGQGTQVTVSS | low polyreactivity
QVQLVDSGGGLVQAGGSLRLSCAASGGTFQGNAMGWYRQAPGKEREFVATITRGGGSKYYADSVKGRFTISRDNAKNTVYLQMNSLKPEDTAVYFCNAYLVSRYPGDYWGQGTQVTVSP | high polyreactivity
QVQLVESGGGLVQAGGSLRLSCAASGLTFFYYAMGWYRQAPGKERELVASITWRSGSTYYADSVKGRFTISRDNAKNTVYLQMNSLKPEDTAVYYCAAYPYTYLQLMDYWGQGTQVTVSS | high polyreactivity
QVQLVESGGGLVQAGGSLRLSCAASGSIFASYAMGWYRQAPGKERELVAAITTSGGRTYYADSVKGRFTISRDNAKNTVYLQMNSLKPEDTAVYYCARRPRGGRYAYYSWGQGTQVTVSS | high polyreactivity
QVQLVESGGGLVQAGGSLRLSCAASGSTFRLYTKGWYRQAPGKERELVAAISVSGVSTYYADSVKGRFTISRDNAKNTVYVQMNSLKPEDTAVYYCAKRGYLFLRGSVRVGYNYWGQGTQVTVSS | low polyreactivity
QVLLVESGGGLVQAGGSLRLSCAASGRTFVTNAMGWYTQAPGKERELVAGITRRGGSTYYADSVKGRFTISRDNAKNTVYLQMNSLKPEDTAVYYCARRGDTSTRYYYWGQGTQVTVSS | high polyreactivity
QVQLVESGGGLVQAGGSLRLSCAASGRTFFVYTMGWYRQAPGKERELVAAITSDTSTTYADSVKGRFTISRDNAKNTVYLQMISLKPEDTAVYYCAAEGYVGYYDYDYWGQGTQVTVSS | low polyreactivity
